Data on one substance can be found in paper PMC11384727.

In the assay the target is PKM2 (pcDNA3.1(+)-PKM2, transfected) (human) (UniProt P14618). Kind of assay: cross-linking.

PKM2 (pcDNA3.1(+)-PKM2, transfected), P14618 1-531 (enzyme; other documents disagree on this pair), sequence (P14618 whole entry): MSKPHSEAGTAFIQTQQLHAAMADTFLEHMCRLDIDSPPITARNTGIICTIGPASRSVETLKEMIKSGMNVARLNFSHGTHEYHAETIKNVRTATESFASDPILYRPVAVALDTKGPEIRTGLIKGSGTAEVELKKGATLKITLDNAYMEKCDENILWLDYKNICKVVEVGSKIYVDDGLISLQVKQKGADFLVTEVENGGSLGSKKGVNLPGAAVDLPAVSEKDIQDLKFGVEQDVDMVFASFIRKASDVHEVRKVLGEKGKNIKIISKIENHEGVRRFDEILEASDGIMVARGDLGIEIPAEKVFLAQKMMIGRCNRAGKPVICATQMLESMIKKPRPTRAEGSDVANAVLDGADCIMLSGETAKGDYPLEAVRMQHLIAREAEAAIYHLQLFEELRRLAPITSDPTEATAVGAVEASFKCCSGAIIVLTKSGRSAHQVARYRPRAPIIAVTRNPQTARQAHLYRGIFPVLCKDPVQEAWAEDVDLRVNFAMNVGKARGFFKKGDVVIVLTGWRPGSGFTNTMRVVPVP

As for “PKM2 (pcDNA3.1(+)-PKM2, transfected), P14618 1-531 (enzyme; other documents disagree on this pair)”, the stoichiometry N is 2.
